We go through 1 molecule from US12576029B2, “Noncompetitive receptor-targeted vaccine delivery to plasmacytoid dendritic cells” (Washington University, priority 2022, dated 2026).

This test has as its system pDC. The test is described as follows: pDC fraction after FLT3L injection in mice. It counts as in vivo. As to conditions: after 7 days. The source says: Inbred mice and distribution of dendritic cells: BL/6, SV129 and […] inbred mouse lines were obtained from Jackson Laboratory (Bar Harbor, ME) The distribution of dendritic cells were examined using flow cytometry by using fluorochrome-conjugated monoclonal antibodies. Briefly, cells from spleen and liver were isolated from the mice and stained using fluorophore labeled antibodies. Cells were then fixed using 4% paraformaldehyde and analyzed by flow cytometry.
Further, the amount of pDC fraction was found inducible with injection of FMS-like tyrosine kinase 3 ligand in mice after 7 days (FIG. 2A-2B). Incubation of bone marrow differentiation culture with mouse transferrin for 7 days enhanced CD71 expression and pDC fraction (FIG. 2C-2D).

B1: FMS-like tyrosine kinase 3 ligand: FMS-like tyrosine kinase 3 ligand injected in mice to induce pDC fraction (protein, UniProt P49771 27-235, looked up)
Fms-related tyrosine kinase 3 …: TQDCSFQHSPISSDFAVKIRELSDYLLQDYPVTVASNLQDEELCGGLWRLVLAQRWMERLKTVAGSKMQGLLERVNTEIHFVTKCAFQPPPSCLRFVQTNISRLLQETSEQLVALKPWITRQNFSRCLELQCQPDSSTLPPPWSPRPLEATAPTAPQPPLLLLLLLPVGLLLLAAAWCLHWQRTRRRTPRPGEQVPPVPSPQDLLLVEH
In the case of B1, the pDC fraction result is “inducible”. Also, the pDC fraction entry (listed as FLT3L) is listed as “inducible upregulation”.
